Molecular target: β5 integrin (human, ITGB5) (human)
Experiment: cell-based or functional assay

## anti-β5 integrin subunit monoclonal antibody KN52 (eBiosciences)
  % Inhibition of cell growth, SKBr3 cells, SRB assay, 5 days, antibody alone at 0.08 µg/ml (trastuzumab 0): 30%
  % Inhibition of cell growth, SKBr3 cells, SRB assay, 5 days, antibody alone at 0.4 µg/ml (trastuzumab 0): 43.7%
  % Inhibition of cell growth, SKBr3 cells, SRB assay, 5 days, antibody alone at 2 µg/ml (trastuzumab 0): 52.6%
  % Inhibition of cell growth, SKBr3 cells, SRB assay, 5 days, antibody alone at 10 µg/ml (trastuzumab 0): 71.5%
  % Inhibition of cell growth, SKBr3 cells, SRB assay, 5 days, antibody alone at 50 µg/ml (trastuzumab 0): 76.2%
  Inhibition of cell proliferation, 184-A1 (normal breast cell line), 10 µg/ml, 4 days, vs isotype control: 0%
  Inhibition of cell proliferation, 231 (breast), 10 µg/ml, 4 days, vs isotype control: 23%
  Inhibition of cell proliferation, 435 (breast), 10 µg/ml, 4 days, vs isotype control: 33.7%
  Inhibition of cell proliferation, 453 (breast), 10 µg/ml, 4 days, vs isotype control: 24.9%
  Inhibition of cell proliferation, 468 (breast), 10 µg/ml, 4 days, vs isotype control: 44.3%
  Inhibition of cell proliferation, A172 (brain), 10 µg/ml, 4 days, vs isotype control: 90%
  Inhibition of cell proliferation, A549 (lung), 10 µg/ml, 4 days, vs isotype control: 60 to 80%
  Inhibition of cell proliferation, BT-474 (breast), 10 µg/ml, 4 days, vs isotype control: 0%
  Inhibition of cell proliferation, CaoV3 (ovary), 10 µg/ml, 4 days, vs isotype control: 45.9%
  Inhibition of cell proliferation, Colo205 (colon), 10 µg/ml, 4 days, vs isotype control: 27.2%
  Inhibition of cell proliferation, Du145 (prostate), 10 µg/ml, 4 days, vs isotype control: 17.1%
  Inhibition of cell proliferation, Du-4475 (breast), 10 µg/ml, 4 days, vs isotype control: 2.13%
  Inhibition of cell proliferation, H358 (lung), 10 µg/ml, 4 days, vs isotype control: 30.1%
  Inhibition of cell proliferation, H460 (lung), 10 µg/ml, 4 days, vs isotype control: 39.7%
  Inhibition of cell proliferation, HCC-1419 (breast), 10 µg/ml, 4 days, vs isotype control: 20.9%
  Inhibition of cell proliferation, HCC-1954 (breast), 10 µg/ml, 4 days, vs isotype control: 39.3%
  Inhibition of cell proliferation, HCT8 (colon), 10 µg/ml, 4 days, vs isotype control: 33%
  Inhibition of cell proliferation, HCT15 (colon), 10 µg/ml, 4 days, vs isotype control: 58.7%
  Inhibition of cell proliferation, HMEC C (normal human mammary epithelial cells), 10 µg/ml, 4 days, vs isotype control: 0%
  Inhibition of cell proliferation, MCF7 (breast), 10 µg/ml, 4 days, vs isotype control: 49.1%
  Inhibition of cell proliferation, PC3 (prostate), 10 µg/ml, 4 days, vs isotype control: 11.2%
  Inhibition of cell proliferation, SK-N-SH (brain), 10 µg/ml, 4 days, vs isotype control: 40%
  Inhibition of cell proliferation, SKBr3 (breast), 10 µg/ml, 4 days, vs isotype control: 26.2%
  Inhibition of cell proliferation, SW480 (colon), 10 µg/ml, 4 days, vs isotype control: 30.2%
  Inhibition of cell proliferation, SW620 (colon), 10 µg/ml, 4 days, vs isotype control: 48.5%
  Inhibition of cell proliferation, SW626 (ovary), 10 µg/ml, 4 days, vs isotype control: 29.7%
  Inhibition of cell proliferation, SW1783 (listed under colon), 10 µg/ml, 4 days, vs isotype control: 26.6%
  Inhibition of cell proliferation, Skov3 (ovary), 10 µg/ml, 4 days, vs isotype control: 15.1%
  Inhibition of cell proliferation, T47D (breast), 10 µg/ml, 4 days, vs isotype control: 30.9%

— US20110243927A1
